Assay results taken from paper PMC2818180.

Target: Affinity peptide KRTGQYKL immobilised in PEG hydrogel
Assay: absorption of bFGF into peptide-functionalized hydrogels

Recombinant human bFGF (from UniProt P09038 143-288) (ligand)
bFGF absorbed in gel at 4.4 µM monovalent peptide: 27.3 ng/mg-gel
